The text below walks through data of PMC4268495 (Nature, 2014).

For the assay, the target named is T1, FtsZ (full length, recombinant) (Streptococcus pneumoniae, UniProt A0A0H2ZNE0 1-419).
T1 sequence (looked up): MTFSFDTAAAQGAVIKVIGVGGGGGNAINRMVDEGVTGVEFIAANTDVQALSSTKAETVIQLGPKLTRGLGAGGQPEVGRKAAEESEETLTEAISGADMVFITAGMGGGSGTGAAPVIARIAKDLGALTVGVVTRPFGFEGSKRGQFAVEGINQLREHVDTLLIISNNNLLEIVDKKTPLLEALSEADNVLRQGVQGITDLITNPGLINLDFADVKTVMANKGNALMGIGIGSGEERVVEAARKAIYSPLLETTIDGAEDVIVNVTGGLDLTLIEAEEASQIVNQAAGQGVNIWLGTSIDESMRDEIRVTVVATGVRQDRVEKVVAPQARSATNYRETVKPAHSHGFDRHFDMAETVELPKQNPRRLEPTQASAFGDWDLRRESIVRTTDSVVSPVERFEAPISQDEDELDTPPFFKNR
Kind of assay: SPR.

One may read the Kd as the free concentration of one partner at which half of the binding sites on the other are occupied at equilibrium, for simple one-to-one binding. For the molecule MSKKRRNRHKKEAQEPQFDFDEAKELTVGQAIRKNEEVEAG (domain or fragment, Streptococcus pneumoniae, UniProt Q8DR55 1-41, looked up) [MapZ N-terminal peptide from Met-1 to Gly-41], the dissociation constant (Kd) was 20.4 nM.

B1: MapZ cytoplasmic domain (domain or fragment, Streptococcus pneumoniae, UniProt Q8DR55 1-158, looked up)
chain: MSKKRRNRHKKEAQEPQFDFDEAKELTVGQAIRKNEEVEAGVLPEDSILDKYVKQHRDEIEADKFATRQYKKEEFVETQSLDDLIQEMREAVEKSEASSEEVPSSEDILLPLPLDDEEQGLDPLLLDDENPTEMTEEVEEEQNLSRLDQEDSEKKSKK
On to B1, for which the Kd turned out to be 8.76 nM.

B2: MapZ-2TE cytoplasmic domain (domain or fragment, Streptococcus pneumoniae, UniProt Q8DR55 1-158, looked up)
chain: MSKKRRNRHKKEAQEPQFDFDEAKELTVGQAIRKNEEVEAGVLPEDSILDKYVKQHRDEIEADKFAERQYKKEEFVEEQSLDDLIQEMREAVEKSEASSEEVPSSEDILLPLPLDDEEQGLDPLLLDDENPTEMTEEVEEEQNLSRLDQEDSEKKSKK
For B2, the binding result was “binds”.
